The source of these data is PMC11995187, “Specificity landscapes of 40 R2R3‐MYBs reveal how paralogs target different cis‐elements by homodimeric binding”.

The target in one data set is T1, AtMYB2 (Arabidopsis thaliana, UniProt Q39028 1-273).
T1 sequence: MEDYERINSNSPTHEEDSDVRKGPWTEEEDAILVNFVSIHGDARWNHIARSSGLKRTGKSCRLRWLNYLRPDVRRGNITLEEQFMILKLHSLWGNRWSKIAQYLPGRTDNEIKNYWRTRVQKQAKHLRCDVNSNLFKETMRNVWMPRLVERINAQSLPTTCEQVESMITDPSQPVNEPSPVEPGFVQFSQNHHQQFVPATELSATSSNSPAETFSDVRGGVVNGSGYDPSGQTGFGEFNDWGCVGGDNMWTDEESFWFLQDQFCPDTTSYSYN
The data set is described as follows: EMSA; 24-48 ng/uL protein; single-molecule shift only, no dimer band; EMSA: 10 mM Tris pH 7.5, 50 mM KCl, 10 ng DNA in 20 uL, 25 C, 1 h; 6% native PAGE, 0.5x TBE, 4 C. The conditions noted are these: protein: recombinant; tags: His; label: none (gel stain); (annealed oligonucleotides). (In general: A gel shift assay detects complexes by their altered migration in electrophoresis.)

For another data set, the target named is T2, AtMYB2 homodimer (Arabidopsis thaliana, UniProt Q39028 1-273).
T2 sequence: T1 sequence
The data set is described as follows: EMSA; 18-48 ng/uL protein; monomer band also seen, dimer band at 36 and 48 ng/uL; EMSA: 10 mM Tris pH 7.5, 50 mM KCl, 10 ng DNA in 20 uL, 25 C, 1 h; 6% native PAGE, 0.5x TBE, 4 C. The conditions noted are these: protein: recombinant; tags: His; chain copies: 2; label: none (gel stain); (annealed oligonucleotides).

B1: Ma (dsDNA)
DNA 1: GATCCAATTGACCACTACGTTAGGTAATGGACATCAATGCCA
DNA 2: TGGCATTGATGTCCATTACCTAACGTAGTGGTCAATTGGATC
Take B1: the binding result with AtMYB2 is “binds”.

B2: ER8 (dsDNA)
DNA 1: GATCCAATTGGTTAGGTCGATCTCAACCTAACATCAATGCCA
DNA 2: TGGCATTGATGTTAGGTTGAGATCGACCTAACCAATTGGATC
Consider B2, for which, in the data set with AtMYB2 homodimer, the binding result is “binds”.

B3: ER1a (dsDNA)
DNA 1: GATCCAATTGGTTTGGTCACCGATTTAACCTCATCAATGCCA
DNA 2: TGGCATTGATGAGGTTAAATCGGTGACCAAACCAATTGGATC
On to B3, for which the binding result with AtMYB2 homodimer is reported as “binds”.
